Results taken from article PMC5988292, “Crystal structures of the PH domains from Lbc family of RhoGEFs bound to activated RhoA GTPase” (Data in Brief, 2018).
Where “and” joins values, the source holds several entries; their conditions need not be identical. Equal values may be shown once.

B1: PH domain from mouse p114RhoGEF (residues 302-444) (domain or fragment, UniProt Q6P9R4-1 302-444, looked up)
chain: YEKDQRLKEIAAKTDQKSSGKLKNGLTFRKEDMLQQRQLHLEGALCWKSTSGRLKDVLAVLLTDVLLLLQEKDQKYVFASVDSKPPVISLQKLIVREVANEEKAMFLISASMQGPEMYEMYTSSKEDRNIWMAHIRRAVESCP
notes: p114RhoGEF, mouse, PH domain, residues 302-444; The final model holds residues 299-444, three more at the N-terminus than the stated construct; also called p114-PH; p114RhoGEF-PH
B2: PH domain from human AKAP-LbcRhoGEF (residues 2195-2333) (domain or fragment, UniProt Q12802 2195-2333, looked up)
chain: YEKKVRLNEIYTKTDSKSIMRMKSGQMFAKEDLKRKKLVRDGSVFLKNAAGRLKEVQAVLLTDILVFLQEKDQKYIFASLDQKSTVISLKKLIVREVAHEEKGLFLISMGMTDPEMVEVHASSKEERNSWIQIIQDTIN
notes: AKAP-LbcRhoGEF, human, PH domain, residues 2195-2333; also called AKAP-Lbc-PH; AKAP-LbcRhoGEF-PH
B3: PRG-PH (non-fluorescent PH domain of PDZRhoGEF) (domain or fragment, UniProt O15085 924-1085, looked up)
chain: VKQTENRHRLEGYQKRLDATALERASNPLAAEFKSLDLTTRKMIHEGPLTWRISKDKTLDLHVLLLEDLLVLLQKQDEKLLLKCHSKTAVGSSDSKQTFSPVLKLNAVLIRSVATDKRAFFIICTSKLGPPQIYELVALTSSDKNTWMELLEEAVRNATRHP
notes: PH domain of PDZRhoGEF (PRG); also called PDZRhoGEF-PH
B4: p115-PH (PH domain of p115RhoGEF) (domain or fragment, UniProt Q92888 647-760, looked up)
chain: KLVHEGPLTWRVTKDKAVEVHVLLLDDLLLLLQRQDERLLLKSHSRTLTPTPDGKTMLRPVLRLTSAMTREVATDHKAFYVLFTWDQEAQIYELVAQTVSERKNWCALITETAG
notes: PH domain of p115 (Lbc-family RhoGEF)

biological target: T1, YFP-RhoA·GTPγS (UniProt P61586 1-193); test: FRET or BRET; competition: non-fluorescent PH domain titrated into 1 μM YFP-RhoA·GTPγS + 1 μM CFP-PRG-PH; 20 mM NaHEPES pH 7.5, 1 mM EDTA, 1 mM DTT, 100 mM NaCl, 5 mM MgCl2; 25 °C; ratio 525/475 nm; conditions: both partners purified
T1 construct: RhoA; Loaded with GTPγS

Row | IC50 | Binder
1 | > 60 µM and ~60 µM | B1
2 | ~20 µM | B2
3 | 3 µM | B3
4 | > 150 µM | B4
